This passage reports Kd results from US20260285956 (published 2026).

The chains are these.
B1: ACI-7071-806H5-Ab1 (antibody, V domains shown)
VH: DVKLEDSGGGLVQPEGSMKLSCVASGFIFSDAWMAWVRQSPEKGLEWVAEIRGRASSHATYYAESVKGRFTISRDDSKSSVYLQMNSLRAEDTGVYYCTRGVNYWGQGTALTVSS
VL: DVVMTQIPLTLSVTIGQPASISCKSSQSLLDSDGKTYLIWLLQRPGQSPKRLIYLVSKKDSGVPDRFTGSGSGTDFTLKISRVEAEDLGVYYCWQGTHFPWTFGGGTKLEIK
B2: ACI-7071-810H12-Ab1 (antibody, V domains shown)
VH: QVQLQQSGAELVRPGASVKLSCKALDYTFTDYEMHWVKQTPVHGLEWIGAVHPRSGGTVYNQRFRAKATLTADKSSSTAFIELSSLTSEDSAVYFCTYYGYDEIYWGQGTLVTVSA
VL: DVVMTQISFSLPVSLGDQASISCRSSQSLVHSDGTTYLHWYLQKPGQSPKLLIYKVSNRFSGVPDRFSGSGSGTDFTLKISRVEAEDLGVYFCSQSTHAPYTFGGGTKLEIK
B3: ACI-7071-704H9-Ab1 (antibody, V domains shown)
VH: EVQLVESGGDLVKPGGSLKLSCAASGFTFANYAMSWIRQTPEKRLEWVATISGGGLYINYPANLKGRFTISRDNAKNNLYLQMSHLKSEDTAMYYCVKDRGQNWSWFAYWGQGTLVTVSA
VL: QLVLTQSSSASFSLGASAKLTCTLSSQHSTYTIEWYQQQPLKPPKYVMELEKDGSHSTGDGIPDRFSGSSSGADRYLSISNIQPEDEAIYICGVGDTIKEQFVYVFGGGTKVTVL
B4: ACI-7071-707A6-Ab1 (antibody, V domains shown)
VH: EVQLVESGGVLVKPGGSLKLSCAASGFIFSSFSMSWVRQNPEKRLEWVATISAAGRYIYYPDNVKGRFTISRDNAKNNLYLYMSHVRSEDTAIYYCVKDRGLNWSWFAYWGQGTLVTVSA
VL: QLVLTQSSSASFSLGASAKLTCTLSSQHSTYTIEWYQQQPLKPPKYVMELKKDGSHSTGDGIPDRFSGSSSGADRYLSISDIQPEDEAVYICGVGDTIKEQFVYVFGGGTKVTVL
B5: ACI-7071-801H1-Ab1 (antibody, V domains shown)
VH: EVQLQQSGPELVKPGASVKISCKTSGYTFTEYTMHWVKQSHGQSLEWIGGIHPNNGGTIYNQKFKGRATLTVDKSSSTAYMEFRSLTSDDSAVYYCASPCWGQGTSVTVSS
VL: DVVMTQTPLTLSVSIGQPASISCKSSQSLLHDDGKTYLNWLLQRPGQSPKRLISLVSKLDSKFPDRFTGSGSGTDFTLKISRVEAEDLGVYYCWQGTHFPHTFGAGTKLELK

The target of the test is soluble TDP-43 (human). Briefly: SPR. In general terms: Surface plasmon resonance follows binding to a sensor surface in real time, without labels.
Chain of soluble TDP-43 (human) (chain, as listed by the source): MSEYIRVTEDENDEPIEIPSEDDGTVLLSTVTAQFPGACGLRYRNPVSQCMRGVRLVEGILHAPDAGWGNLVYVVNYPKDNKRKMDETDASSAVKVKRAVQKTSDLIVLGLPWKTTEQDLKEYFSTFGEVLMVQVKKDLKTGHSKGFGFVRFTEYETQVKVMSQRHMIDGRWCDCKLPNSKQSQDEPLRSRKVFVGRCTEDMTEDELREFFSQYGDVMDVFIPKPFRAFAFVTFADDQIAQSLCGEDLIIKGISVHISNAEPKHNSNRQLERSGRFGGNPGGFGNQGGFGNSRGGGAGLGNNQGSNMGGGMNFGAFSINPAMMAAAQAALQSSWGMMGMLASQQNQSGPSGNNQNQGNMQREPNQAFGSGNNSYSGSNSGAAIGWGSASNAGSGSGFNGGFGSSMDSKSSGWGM
A word on the Kd: it is the concentration at which binding is half-saturated. A high value points to a looser complex. Turning to B1, binding was put at a Kd of 0.2 nM. Molecule B2 had a Kd of 0.38 nM. The value for B3 was 0.23 nM. The value for B4 was 0.11 nM; that for B5 was 0.75 nM.
